This note sets out measurements from patent US20150086481A1, “DIAGNOSIS AND TREATMENT OF PARKINSON'S DISEASE” (MEMORIAL SLOAN-KETTERING CANCER CENTER, priority 2011, published 2015).

Entries after “also recorded” stand apart in the source; their conditions may differ. Where no end group is shown, it is not given here.

The target in this series is T1, GUCY2C receptor (Mus musculus, UniProt Q3UWA6).
T1 construct: from tissue; host or cells: adult mouse brain (substantia nigra mDA neurons), in vivo after tail vein injection
T1 sequence (Q3UWA6 20-1072): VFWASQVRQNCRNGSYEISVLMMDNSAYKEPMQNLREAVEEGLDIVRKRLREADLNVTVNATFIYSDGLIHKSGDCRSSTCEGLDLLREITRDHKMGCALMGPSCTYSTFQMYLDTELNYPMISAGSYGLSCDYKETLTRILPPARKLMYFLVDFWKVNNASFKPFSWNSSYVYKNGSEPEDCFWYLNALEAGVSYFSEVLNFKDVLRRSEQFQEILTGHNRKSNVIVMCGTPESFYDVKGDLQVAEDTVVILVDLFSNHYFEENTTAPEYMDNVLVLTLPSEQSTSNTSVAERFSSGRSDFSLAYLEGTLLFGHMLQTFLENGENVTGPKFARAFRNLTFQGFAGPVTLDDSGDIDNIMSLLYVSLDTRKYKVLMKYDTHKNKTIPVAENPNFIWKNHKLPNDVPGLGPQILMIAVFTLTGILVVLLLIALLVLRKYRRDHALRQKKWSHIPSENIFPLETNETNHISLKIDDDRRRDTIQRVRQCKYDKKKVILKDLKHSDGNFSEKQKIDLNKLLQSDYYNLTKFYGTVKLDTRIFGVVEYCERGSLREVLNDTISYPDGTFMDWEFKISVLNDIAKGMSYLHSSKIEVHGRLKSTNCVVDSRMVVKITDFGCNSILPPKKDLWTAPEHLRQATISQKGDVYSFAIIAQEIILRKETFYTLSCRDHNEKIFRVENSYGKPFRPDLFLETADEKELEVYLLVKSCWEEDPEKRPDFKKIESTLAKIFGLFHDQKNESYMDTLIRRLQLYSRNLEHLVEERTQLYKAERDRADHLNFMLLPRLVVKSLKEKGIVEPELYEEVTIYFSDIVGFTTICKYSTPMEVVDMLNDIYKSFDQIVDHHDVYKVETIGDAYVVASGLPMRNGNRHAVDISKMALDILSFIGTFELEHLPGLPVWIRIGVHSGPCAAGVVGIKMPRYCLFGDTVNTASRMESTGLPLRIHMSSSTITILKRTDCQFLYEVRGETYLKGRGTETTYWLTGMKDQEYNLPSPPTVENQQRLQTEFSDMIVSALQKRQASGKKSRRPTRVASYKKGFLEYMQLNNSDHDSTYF
Description: Autoradiography of sagittal brain sections after tail vein injection of ^131I-guanylin. Format: in vivo. Here is the method:
The GUCY2C receptor binds to heat stable enterotoxins, to guanylin and to uroguanylin. Guanylin is a 15 amino acid polypeptide (PGTCEICAYAACTGC, SEQ ID NO:1) that contains a tyrosine residue within the middle of its structure (Bryant et al., Life Sci. 86:760-765 (2010)). Guanylin (R&D Systems, Inc., Minneapolis, Minn.) was radiolabeled with ^131Iodine. 1 mCi of ^131I-guanylin was injected in the tail vein of adult mice and animals were sacrificed 10 minutes post-injection without perfusion.

In the case of “^131I-guanylin: Guanylin, a 15 amino acid polypeptide GUCY2C ligand (R&D Systems), radiolabeled with ^131Iodine (PGTCEICAYAACTGC; ends and bridges not checked; also: 131I radiolabel; UniProt Q02747 101-115, looked up)”, the “crossing of the blood brain barrier” value (adult mice, 1 mCi tail vein injection, 10 minutes post-injection) was “crossed the blood brain barrier”. The “localization of radioactive signal in sagittal brain sections (autoradiography)” value (adult mice, 1 mCi tail vein injection, sacrificed 10 minutes post-injection without perfusion) is “localized to the ventricles; also recorded: within the brain parenchyma the only “hot spot” was indeed localized to the GUCY2C expression domain; also recorded: strong emission in the ventricles and SN”. Under “adult mouse brain, after tail vein injection, signal specific to TH-expressing mDA neurons”, the “binding to GUCY2C expressing mDA neurons in the SN” value is on record as “bound to GUCY2C expressing mDA neurons in the SN of the adult brain; also recorded: specific binding to the GUCY2C receptor”.
